The data set deals with the molecule itself. Description: SDS-PAGE without reducing agent and western blot; total membrane preparation of oocytes expressing myc-tagged hSGLT1, 7.5 or 10% polyacrylamide gel, absence of β-Mercaptoethanol, detected with α-c-myc.

B1: wt myc-tagged human sodium-glucose cotransporter 1 (hSGLT1) (natural protein, UniProt P13866 1-664, looked up)
chain: MDSSTWSPKTTAVTRPVETHELIRNAADISIIVIYFVVVMAVGLWAMFSTNRGTVGGFFLAGRSMVWWPIGASLFASNIGSGHFVGLAGTGAASGIAIGGFEWNALVLVVVLGWLFVPIYIKAGVVTMPEYLRKRFGGQRIQVYLSLLSLLLYIFTKISADIFSGAIFINLALGLNLYLAIFLLLAITALYTITGGLAAVIYTDTLQTVIMLVGSLILTGFAFHEVGGYDAFMEKYMKAIPTIVSDGNTTFQEKCYTPRADSFHIFRDPLTGDLPWPGFIFGMSILTLWYWCTDQVIVQRCLSAKNMSHVKGGCILCGYLKLMPMFIMVMPGMISRILYTEKIACVVPSECEKYCGTKVGCTNIAYPTLVVELMPNGLRGLMLSVMLASLMSSLTSIFNSASTLFTMDIYAKVRKRASEKELMIAGRLFILVLIGISIAWVPIVQSAQSGQLFDYIQSITSYLGPPIAAVFLLAIFWKRVNEPGAFWGLILGLLIGISRMITEFAYGTGSCMEPSNCPTIICGVHYLYFAIILFAISFITIVVISLLTKPIPDVHLYRLCWSLRNSKEERIDLDAEEENIQEGPKETIEIETQVPEKKKGIFRRAYDLFCGLEQHGAPKMTEEEEKAMKMKMTDTSEKPLWRTVLNVNGIILVTVAVFCHAYFA
notes: human sodium-glucose cotransporter 1 (hSGLT1), wild type; Dimer held by a disulfide bridge between the C355 residues of two molecules, by non-reducing western blot; also called wt hSGLT1; wtSGLT1; source: Xenopus laevis oocytes injected with mRNA, total membrane preparation
With B1, the “stoichiometry N” value stood at 2.

The record behind these values is PMC4854415, “The Human Sodium-Glucose Cotransporter (hSGLT1) Is a Disulfide-Bridged Homodimer with a Re-Entrant C-Terminal Loop” (PLoS ONE, 2016).
